Assay results: patent publication US20200392528A1, “IMPROVED PLANT EPSP SYNTHASES AND METHODS OF USE” (PIONEER HI-BRED INTERNATIONAL, INC., priority 2017, published 2020)
Read-outs that look alike come from different tables or passages of the source.

Key:
[1] = biological target: maize EPSPS; assay: substrate saturation kinetic analysis (kcat, KM PEP, KI glyphosate); format: biochemical; details: for kcat/Km*Ki: calculated with Km for PEP
Procedure: (§1) EPSPS activity was determined by quantifying the phosphate generated from the EPSPS reaction. Release of inorganic phosphate was coupled to its reaction with 2-amino-6-mercapto-7-methylpurine ribonucleoside (MESG), catalyzed by purine nucleoside phosphorylase, according to previously described protocols. To determine the kcat gly, enzyme preparations were normalized to 0.1 mg/ml and four- to six-microliter aliquots of normalized enzyme were added to the wells of a low UV-absorbing 96-well assay plate (Greiner UV-Star). Reactions were started with the addition of 2×147 μl of reaction mixture containing 25 mM Hepes, pH 7.0, 100 mM KCl, 5% ethylene glycol, 30 μM each of PEP and S3P, 0.15 mM MESG, 1.5 U/ml purine nucleoside phosphorylase (Sigma N8264) and 1 mM glyphosate. Absorbance was monitored at 4 sec intervals for 50 sec with a Spectramax plate reader (Molecular Devices). […] Division by the enzyme concentration (0.04 to 0.1 uM, depending on activity) yields “kcat gly” in units of min^−1.
(§2) Approximately 30 substitutions were designed into each library. Assuming an average incorporation rate of six substitutions per variant, the theoretical size of such libraries is ˜7×10^5. Libraries were screened using methods described previously and the enhanced method described in Example 2. The number of colony-forming units plated and screened was in the range of 50 to 100% of the theoretical size. Up to 200 colonies per library were picked for evaluation of the expressed variant. Proteins were purified as described previously in PCT/US2016/054399, incorporated herein by reference. Protein concentration was determined by measuring optical density at 280 nm. The extinction coefficient of native maize EPSPS (0.676 OD/mg/ml) was calculated by vNTI and used to convert OD280 to mg/ml. Kinetic parameters were determined as described in Example 1.
Combinatorial shuffling, maize native EPSPS—The mutations discovered were used to construct a combinatorial library designed to explore combinations of the desensitizing mutations in novel sequence contexts provided by the newly identified neutral mutations. Note that the amino acid position numbering in this Example 10 refers to the relative position of native maize EPSPS without the N-terminal Met. Therefore, G101A in this Example would be G102A in reference to SEQ ID NO: 1, wherein the maize EPSPS sequence has a Met added at the N-terminal. The diversity used was the same with the addition of G101A, T102 (IALGV) and P106(WA). In all, 43 substitutions at 29 positions were selected. The library was synthesized entirely from oligonucleotides, using the known technique of synthetic shuffling and was termed NatFS (Native, fully synthetic). The vector DNA of the library was transformed into the BL21(DE3) Tuner-AroA knockout strain and the cells were plated onto M9 medium containing either 30 mM glyphosate and 30 μM of the lac operon inducer isopropyl β-D-1-thiogalactopyranoside (IPTG) or 50 mM glyphosate and no IPTG. The 184 colonies that grew on either plate were picked and subjected to a second tier of screening in which EPSPS proteins were purified and activity measured at high (200 μM) and low (50 μM) PEP and S3P, with or without 10 μM glyphosate. Selected variants were subjected to substrate saturation kinetic analysis.

[2] = tested on: maize EPSPS; assay: kcat gly / kgly: enzyme turnover under application conditions (30 μM PEP and S3P, 1 mM glyphosate), phosphate release coupled to MESG; format: biochemical
Procedure: A more straight-forward, accurate and meaningful parameter is one in which one rate measurement is performed under presumed in vivo conditions, if known. To establish a set of conditions that mimic those under which the mutated enzyme needs to perform, the concentrations of PEP and S3P were set low (30 uM, subject to the sensitivity of assay conditions) to approach the presumed intracellular concentrations (˜15 uM, the approximate values of KM for both PEP and S3P). Glyphosate is included at 1 mM. The pH is set at 7.0 and ionic strength at 100 mM KCl, also to mimic known in vivo conditions. Ethylene glycol is present at 5% (v/v) to approximate the dielectric constant of intracellular fluid. The parameter is termed “enzyme turnover under application conditions”, which is herein shortened to “kcat gly”. The conventional formatting of the expression “kcat” is not used, to avoid this term being characterized as a standard kinetic constant.
as §1, §2
A customized parameter for predicting performance in the treated plant that would be a more accurate representation than kcat/Km*Ki. […] However, kcat/Km*Ki may be inadequate for predicting the reaction velocity under the conditions of the application (plants sprayed with glyphosate) because it may neglect concentrations of substrate and inhibitor, factors that are not intrinsic to the enzyme, but on which the reaction rate depends. Therefore, libraries derived from C1 on in FIG. 2 were evaluated with a single rate measurement designed to take all factors in the rate equation for competitive inhibition into account. […] Glyphosate was included at 1 mM, a concentration attainable in tissues, especially meristems, receiving metabolite flow from treated leaves. The pH (7.0), ionic strength (100 mM KCl) and co-solvent concentration (5% ethylene glycol) were also intended to mimic in vivo conditions. The unit for the parameter is reaction rate (μM·min^−1) per enzyme concentration (μM), or min^−1, describing the enzyme turnover under application conditions, which we abbreviate as “kgly”. […]

[3] = Table 2, KM for PEP, read-out: KM
[4] = Table 2, discrimination between glyphosate and PEP
[5] = apparent Km, PEP present at 10 times its Km, read-out: Km S3P
[6] = apparent Km, S3P present at 10 times its Km, read-out: Km PEP
[7] = Table 2, 30 μM PEP and S3P, 1 mM glyphosate, pH 7.0

Molecule	Ki ([1]; Ki for glyphosate) [µM]	kcat ([1]; Table 2) [s⁻¹]	kcat/KM*KI ([1]; Table 2)	Km [1, 3] [µM]	KI/KM [1, 4]	Ki ([1]; Table 2, inhibitor glyphosate) [µM]	Km [1, 5] [µM]	Km [1, 6] [µM]	kcat/Km*Ki [1]	kcat ([1]; maize EPSPS variants) [s⁻¹]	kcat gly [2, 7] [s⁻¹]	other results
G102A: maize EPSPS with G102A mutation (G101A when numbered without N-terminal Met) (protein, Zea mays) MAGAEEIVLQPIKEISGTVKLPGSKSLSNRILLLAALSEGTTVVDNLLNSEDVHYMLGALRTLGLSVEADKAAKRAVVVGCGGKFPVEDAKEEVQLFLGNAATAMRPLTAAVTAAGGNATYVLDGVPRMRERPIGDLVVGLKQLGADVDCFLGTDCPPVRVNGIGGLPGGKVKLSGSISSQYLSALLMAAPLALGDVEIEIIDKLISIPYVEMTLRLMERFGVKAEHSDSWDRFYIKGGQKYKSPKNAYVEGDASSASYFLAGAAITGGTVTVEGCGTTSLQGDVKFAEVLEMMGAKVTWTETSVTVTGPPREPFGRKHLKAIDVNMNKMPDVAMTLAVVALFADGPTAIRDVASWRVKETERMVAIRTELTKLGASVEEGPDYCIITPPEKLNVTAIDTYDDHRMAMAFSLAACAEVPVTIRDPGCTRKTFPDYFDVLSTFVKN	1930 ± 40	10.2	3176	315	5.11	1610	84 ± 2.5	333 ± 26	5780	16.67 ± 0.583	0.203	increase in Ki for glyphosate ([1]; relative to native EPSPS): 30,00 fold; increase in Km for PEP ([1]; relative to native EPSPS): 35 fold; KI/KM ([1]; text b176): 5.1; kgly ([2]; enzyme turnover at 30 μM PEP and S3P, 1 mM glyphosate): 25.7 ± 0.2 min⁻¹
Zm native: native maize EPSPS with added N-terminal Met, SEQ ID NO: 1, reference EPSPS sequence (protein, Zea mays) MAGAEEIVLQPIKEISGTVKLPGSKSLSNRILLLAALSEGTTVVDNLLNSEDVHYMLGALRTLGLSVEADKAAKRAVVVGCGGKFPVEDAKEEVQLFLGNAGTAMRPLTAAVTAAGGNATYVLDGVPRMRERPIGDLVVGLKQLGADVDCFLGTDCPPVRVNGIGGLPGGKVKLSGSISSQYLSALLMAAPLALGDVEIEIIDKLISIPYVEMTLRLMERFGVKAEHSDSWDRFYIKGGQKYKSPKNAYVEGDASSASYFLAGAAITGGTVTVEGCGTTSLQGDVKFAEVLEMMGAKVTWTETSVTVTGPPREPFGRKHLKAIDVNMNKMPDVAMTLAVVALFADGPTAIRDVASWRVKETERMVAIRTELTKLGASVEEGPDYCIITPPEKLNVTAIDTYDDHRMAMAFSLAACAEVPVTIRDPGCTRKTFPDYFDVLSTFVKN	0.066 ± 0.003	24.4	11.8	15.7	0.008	0.13	13.2 ± 0.6	9.5 ± 0.3	11	27.17 ± 0.233	0	kcat/KM*KI [1]: 11.8; Km ([1]; approximate value, read-out: Km for S3P): 10 to 15 µM; Ki ([1]; glyphosate, text b235): 0.066 µM; Km ([1]; read-out: Km for PEP): 10 to 15 µM
Zm D2: maize EPSPS variant, SEQ ID NO: 10 (protein, Zea mays) MRGWEEIVLQPIKEISGTVKLPGSKSLSNRILLLAALSEGTTVVDNLLNSEDVHYMLGALRTLGLSVEHDKAAKRAVVVGCGGRFPVEDAKGEVQLFCGNAATAMRPLTAAVTAAGGNATYVLDGVPRMRERPIGDLVVGLKQLGADVDCFLGTDCPPVRVNGIGGLPGGKVKLSGSISSQYLSALLMAAPLALGDVEIEIIDKLISLPYVEMTLRLMERFGVKAEHSDSWDRFYIKGGQKYESPKNAYVEGDASSASYFLAGAAITGGTVTVEGCGTTSLQGDVKFAEVLEMMGAKVTWTETSVTVTGPPREPFGRKHLKAIDVNMNKMPDAAMTLAVVALFADGPTAIRDVASWRVKETERMVAIRTELTKLGASVEEGPDYCIITPPPKLNVTAIDTYGDHRMAMAFSLAACAEVPVTIRDPGCTRKTFPDYFDVLSTFVKN		6.07	18100	20	49.7	993					1.72	kcat gly ([2]; Table 5, maize variants): 1.9 s⁻¹; Zm/Os ([2]; Table 5, ratio of kcat gly, maize variant to rice ortholog): 1.28
Zm D2-64: maize EPSPS variant, SEQ ID NO: 7 (protein, Zea mays) MRKWEEIVLQPIKEISGTVKLPGSKSLSNRILLLAALSEGTTVVDNLLNSEDVLYMLGALRTLGLSVEHDKAAKRAVVVGCGGRFPVEDAKGEVQLFCGNAATAMRPLTAAVTAAGGNATYVLDGVPRMRERPIGDLVVGLKQLGADVDCFLGTDCPPVRVNGIGGLPGGKVKLSGSISSQYLSALLMAAPLALGDVEIEIIDKLISLPYVEMTLRLMERFGVKAEHSDSWDRFYIKGGQKYESPKNAYVEGDASSASYFLAGAAITGGTVTVEGCGTTSLQGDVKFAEVLEMMGAKVTWTETSVTVTGPPREPFGRKHLKAIDVNMNKMPDAAMTLAVVALFADGPTAIRDVASWRVKETERMVAICTELTKLGASVEEGPDYCIITPPPKLNVTAIDTYGDHRMAMAFSLAACAEVPVTIRDPGCTRKTFPDYFDVLSTFVKN		7.97	22900	19.6	47.9	938					1.68	
Zm D2-15: maize EPSPS variant, SEQ ID NO: 9 (protein, Zea mays) MRGWEEIVLQPIKEISGTVKLPGSKSLSNRILLLAALAEGTTVVDNLLNSEDVHYMLGALRTLGLSVEHDKAAKRAVVVGCGGRFPVEDAKEEVQLFCGNAATAMRPLTAAVTAAGGNATYVLDGVPRMRERPIGDLVVGLKQLGADVDCFLGTDCPPVRVNGIGGLPGGKVKLSGSISSQYLSALLMAAPLALGDVEIEIIDKLISLPYVEMTLRLMERFGVKAEHNDSWDRFYIKGGQKYESPKNAYVEGDASSASYFLAGAAITGGTVTVEGCGTTSLQGDVKFAEVLEMMGAKVTWTETSVTVSGPPREPFGRKHLKAIDVNMNKMPDAAMTLAVVALFADGPTAIRDVASWRVKETERMVAICTELTKLGASVEEGPDYCIITPPPKLNVTAIDTYGDHRMAMAFSLAACAEVPVTIRDPGCTRKTFPDYFDVLSTFVKN		7.87	36400	21.8	77.1	1680					1.7	
